Reference: patent US20260242478A1 (published 2026)
Where no end group is shown, it is not given here.

B1: Phage-1894 (peptide)
peptide: FEKWCTPAWMCAGW
modifications: cysteine pairing not given here; also: fused to phage pIII, sequence and linker not given here
notes: Peptide-180 library clone, tested as clonal phage supernatant; not shown: pIII of the bacteriophage to which the peptide is fused
B2: Phage-1897 (peptide)
peptide: MEKLCIPAWMCDGM
modifications: cysteine pairing not given here; also: fused to phage pIII, sequence and linker not given here
notes: as for B1
B3: Phage-1901 (peptide)
peptide: TDMWCTPMWMCMGF
modifications: cysteine pairing not given here; also: displayed as fusion to phage pIII
notes: as for B1
B4: Phage-1905 (peptide)
peptide: EIRLCTPSWMCMGF
modifications: cysteine pairing not given here; also: displayed as fusion to phage pIII
notes: as for B1
B5: Phage-1904 (peptide)
peptide: DVKWCIPAWMCEGF
modifications: cysteine pairing not given here; also: displayed as fusion to phage pIII
notes: as for B1
B6: Phage-1900 (peptide)
peptide: VSRLCIPTWMCDYS
modifications: cysteine pairing not given here; also: displayed as fusion to phage pIII
notes: as for B1
B7: Phage-1902 (peptide)
peptide: LIPWCIPAWMCTSD
modifications: cysteine pairing not given here; also: displayed as fusion to phage pIII
notes: as for B1
B8: Phage-1895 (peptide)
peptide: WEKMCVPSWMCHFS
modifications: cysteine pairing not given here; also: fused to phage pIII, sequence and linker not given here
notes: as for B1
B9: Phage-1899 (peptide)
peptide: SVKMCTPAWMCSGF
modifications: cysteine pairing not given here; also: fused to phage pIII, sequence and linker not given here
notes: as for B1
B10: Phage-1903 (peptide)
peptide: IDMRCTPNWMCIGF
modifications: cysteine pairing not given here; also: displayed as fusion to phage pIII
notes: as for B1
B11: Phage-1898 (peptide)
peptide: AEKWCFPAWMCERP
modifications: cysteine pairing not given here; also: fused to phage pIII, sequence and linker not given here
notes: as for B1
B12: Phage-1893 (peptide)
peptide: FDKWCIPPWMCQAL
modifications: cysteine pairing not given here; also: fused to phage pIII, sequence and linker not given here
notes: as for B1
B13: Phage-1896 (peptide)
peptide: VLKWCTPAWMCEIF
modifications: cysteine pairing not given here; also: fused to phage pIII, sequence and linker not given here
notes: as for B1
B14: Phage-1913 (peptide)
peptide: ESIRCIPLWMCEGF
B15: Phage-1909 (peptide)
peptide: MMKWCTPAWMCEEA
B16: Phage-1917 (peptide)
peptide: IEKMCKPAWMCWAD
B17: Phage-1915 (peptide)
peptide: SFAWCIPPWMCEIT
B18: Phage-1907 (peptide)
peptide: SAHMCIPPWMCLHT
B19: Phage-1918 (peptide)
peptide: EKIWCVPAWMCTWL
B20: Phage-1910 (peptide)
peptide: GDILCRPEWMCTGF
B21: Phage-1906 (peptide)
peptide: VMKWCIPEWMCYML
B22: Phage-1914 (peptide)
peptide: VIKWCTPAWMCTAL
B23: Phage-1911 (peptide)
peptide: GDPWCIPAWMCMEF
B24: Phage-1919 (peptide)
peptide: VSKLCIPMWMCETS
B25: Phage-1920 (peptide)
peptide: GEYWCIPSWMCQLY
B26: Phage-1908 (peptide)
peptide: WDNWCIPPWMCIGF
B27: Phage-1916 (peptide)
peptide: FTIWCIPEWMCLHE
B28: Phage-1912 (peptide)
peptide: MMKWCIPTWMCEME

Biological target: T1, Anti-PSMA Fab (SEQ ID NOs: 19, 20)
T1 construct: Biotinylated and captured on neutravidin coated plates in the phage ELISA; also called 006 PSMA Fab
Test: phage binding ELISA on captured PSMA Fab; competitor PSMA antigen pre-incubated in the well

| Binder | Anti-PSMA Fab signal in the presence of PSMA |
| --- | --- |
| B1 | 0.0792 |
| B2 | 0.279 |
| B3 | 0.0829 |
| B4 | 0.0792 |
| B5 | 0.105 |
| B6 | 0.0757 |
| B7 | 0.0863 |
| B8 | 0.0735 |
| B9 | 0.0752 |
| B10 | 0.081 |
| B11 | 0.0803 |
| B12 | 0.112 |
| B13 | 0.141 |

Biological target: T1, Anti-PSMA Fab (SEQ ID NOs: 19, 20)
Test: phage binding ELISA; biotinylated PSMA Fab on neutravidin plate, bound phage detected with anti-M13 HRP

| Binder | Anti-PSMA Fab (SEQ ID NOs: 19, 20) signal |
| --- | --- |
| B1 | 2.04 |
| B2 | 2.03 |
| B3 | 2.03 |
| B4 | 2.02 |
| B5 | 2.02 |
| B6 | 2.03 |
| B7 | 2.03 |
| B8 | 2.03 |
| B9 | 2.03 |
| B10 | 2.03 |
| B11 | 2.03 |
| B12 | 2.04 |
| B13 | 2.03 |

Biological target: T2, Anti-PSMA Fab (SEQ ID NOs: 19, 20)
T2 construct: Biotinylated PSMA Fab captured on neutravidin coated plates in the phage ELISA; also called 006 PSMA Fab
Test: phage binding ELISA on captured PSMA Fab pre-incubated with PSMA antigen as competitor, anti-M13 HRP detection

| Binder | Anti-PSMA Fab signal in the presence of PSMA |
| --- | --- |
| B14 | 0.0894 |
| B15 | 0.0691 |
| B16 | 0.0706 |
| B17 | 0.127 |
| B18 | 0.133 |
| B19 | 0.121 |
| B20 | 0.111 |
| B21 | 0.204 |
| B22 | 0.0733 |
| B23 | 0.088 |
| B24 | 0.064 |
| B25 | 0.179 |
| B26 | 0.186 |
| B27 | 0.0999 |
| B28 | 0.132 |

Biological target: T2, Anti-PSMA Fab (SEQ ID NOs: 19, 20)
Test: phage binding ELISA; clonal phage supernatant on biotinylated PSMA Fab captured on neutravidin plates, anti-M13 HRP detection

| Binder | Anti-PSMA Fab (SEQ ID NOs: 19, 20) signal |
| --- | --- |
| B14 | 2 |
| B15 | 2.01 |
| B16 | 2 |
| B17 | 2 |
| B18 | 2.02 |
| B19 | 1.99 |
| B20 | 2.01 |
| B21 | 2.02 |
| B22 | 2 |
| B23 | 2.01 |
| B24 | 1.99 |
| B25 | 1.99 |
| B26 | 2.02 |
| B27 | 2 |
| B28 | 2 |
